These results are taken from patent KR20240007815A (dated 2024).

For experiment [1], the target named is 인간 BDCA-2 (Blood dendritic cell antigen 2, CLEC4C) (human) (UniProt Q8WTT0). The experiment is described as follows: flow cytometry, double staining of human PBMC with anti-CD123 and anti-BDCA-2. A general note: A flow cytometer gives signals particle by particle.
Experiment [2] has the same target. The experiment is described as follows: flow cytometry, double staining of human PBMC with anti-CD123 and 201A.
Experiment [3] has as its target T1, 인간 BDCA-2 (Blood dendritic cell antigen 2, CLEC4C) (human, UniProt Q8WTT0 1-213).
T1 construct: whole, on cells; also called human BDCA-2
T1 sequence (looked up): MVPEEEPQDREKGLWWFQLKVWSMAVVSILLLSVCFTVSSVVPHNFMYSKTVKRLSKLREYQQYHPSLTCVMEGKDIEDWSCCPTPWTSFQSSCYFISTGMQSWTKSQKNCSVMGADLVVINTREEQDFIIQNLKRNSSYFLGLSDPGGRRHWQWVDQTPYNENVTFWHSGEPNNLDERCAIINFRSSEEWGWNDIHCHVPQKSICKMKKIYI
The experiment is described as follows: flow cytometry on 293 cells expressing human BDCA-2, anti-human IgG-APC secondary.

For “anti-BDCA-2 (AC144, Miltenyi) (antibody)”, in experiment [1], the % CD123+ BDCA-2+ 세포 (donor-1 PBMC) came out at 0.51% and the % CD123+ BDCA-2+ 세포 (donor-2 PBMC) is 0.15%.

B1: 인간 BDCA-2에 결합하는 마우스 단일클론 항체 201A (antibody, mouse IgG2a, kappa, V domains shown)
VH: DVKLVESGGGLVKPGGSLNLSCAASGFTFSSYTMSWVRQNPEKRLEWVATISSGGSYTYYPDSVKGRFTISRDNAKNTLYLQMSSLKSEDTAMYYCTRDRGDYDYDEGYYFDYWGQGTTLTVSS
VL: NIVLTQSPASLAVSLGQRATISCRASASVDSYGNSFMHWYQQKPGQPPKLLIYLASNLESGVPARFSGSGSRTDFTLTIDPVEADDAATYYCQQNNEDPRTFGGGTKLEIKR
For B1, in experiment [2], the % CD123+ BDCA-2+ 세포 (donor-1 PBMC) was 0.65% and the % CD123+ BDCA-2+ 세포 (donor-2 PBMC) amounted to 0.16%.

B2: 201A 인간화 항체 201H (antibody, human IgG1, kappa, V domains shown)
VH: EVQLVESGGGLVKPGGSLRLSCAASGFTFSSYTMSWVRQAPGKGLEWVATISSGGSYTYYPDSVKGRFTISRDNAKNSLYLQMNSLRAEDTAVYYCTRDRGDYDYDEGYYFDYWGQGTLVTVSS
VL: DIVLTQSPASLAVSPGQRATITCRASASVDSYGNSFMHWYQQKPGQPPKLLIYLASNLESGVPARFSGSGSRTDFTLTINPVEANDTANYYCQQNNEDPRTFGGGTKVEIKR
notes: Humanised antibody made in Expi293 cells, purified on protein G; detected with anti-human IgG Fc
With B2, the binding result in experiment [3] was “binds”.

B3: 201A 키메라 항체 201C (antibody, human IgG1, kappa, V domains shown)
VH: DVKLVESGGGLVKPGGSLNLSCAASGFTFSSYTMSWVRQNPEKRLEWVATISSGGSYTYYPDSVKGRFTISRDNAKNTLYLQMSSLKSEDTAMYYCTRDRGDYDYDEGYYFDYWGQGTTLTVSS
VL: NIVLTQSPASLAVSLGQRATISCRASASVDSYGNSFMHWYQQKPGQPPKLLIYLASNLESGVPARFSGSGSRTDFTLTIDPVEADDAATYYCQQNNEDPRTFGGGTKLEIKR
notes: Chimeric antibody made in Expi293 cells, purified on protein G; detected with anti-human IgG Fc
With B3, the binding result in experiment [3] is on record as “binds”.
